Experimental data published in the supplement of paper PMC9170038.

What was measured:
MS2 coat protein [1] = experiment: apparent KD of MS2 coat protein, switch OFF state (with FMN for OFF switches, without FMN for ON switches); designed switch direction (-1 OFF switch, 1 ON switch): 1; higher = weaker reporter binding; conditions: FMN input: 0 or 200 uM; Eterna round: R93 (includes R88 designs)
Procedure, shortened: (§1)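 In 100 mM Tris-HCl pH 7.5 with 80 mM KCl and 4 mM MgCl2, and without or with constant ligand, SNAP-549-labelled MS2 coat protein was titrated in twofold steps from 0.7 or 1.5 nM to 3 µM. Per-step times went from 0.8–1.5 h down to 10–20 min. The RNA switches were transcribed on-chip from Illumina sequencing clusters, and apparent KD is the per-design median of normalised cluster binding-curve fits.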

MS2 coat protein [2] = experiment: apparent KD of MS2 coat protein, switch ON state; designed switch direction (-1 OFF switch, 1 ON switch): 1; higher = weaker reporter binding; conditions: FMN input: 0 or 200 uM; Eterna round: R93 (includes R88 designs)
Procedure, shortened: as §1

## AAAAAAUAAAAAAAGGAUAUAAAUGGUACAACAUGAGGAUCACCCAUGUAGUACCAAAAAAUAAAAAAGAAGGAAAAAUAAAAAA [SS2: MS2 22]
MS2 coat protein [1]
  apparent KD of MS2 coat protein: 23.7 nM
MS2 coat protein [2]
  apparent KD of MS2 coat protein: 20.8 nM

## AAAAACAUGGUGUAGGAUAUAUUAAUAGUCACAUGAGGAUCACCCAUGUUCAGAUAUCUGAACGAGUAGAAGGACGAUGAAAAAA [Mat - Same state - Malcolm Mod - D109]
MS2 coat protein [1]
  apparent KD of MS2 coat protein: 349 nM
MS2 coat protein [2]
  apparent KD of MS2 coat protein: 454 nM

## AAAACACAUGAGGAUCACCCAUGUAAAAACAAGAGAGGAUAUGCUUGGAAAACAUGCUAUGCAGAAGGCUCAAGUG [SS1 - 10]
MS2 coat protein [1]
  apparent KD of MS2 coat protein: 24.5 nM
MS2 coat protein [2]
  apparent KD of MS2 coat protein: 19.2 nM

## AAAACACAUGAGGAUCACCCAUGUAAAAACAUGGGAGGAUAUGCUUGGAAAACAUGCUAUGCAGAAGGCUCAAGUG [SS1 - 12]
MS2 coat protein [1]
  apparent KD of MS2 coat protein: 46.4 nM
MS2 coat protein [2]
  apparent KD of MS2 coat protein: 72.6 nM

## AAAAGACAUGAGGAUCACCCAUGUAAAAACGUAGGAGGAUAUGUAUGGAAACCAGACUGUACAGAAGGCCUUUGUC [SS1 - 73]
MS2 coat protein [1]
  apparent KD of MS2 coat protein: 19.4 nM
MS2 coat protein [2]
  apparent KD of MS2 coat protein: 20 nM

## AAAAGACAUGAGGAUCACCCAUGUAAAGACAUAGGAGGAUAUGUCAUGAAAAAAGACUUGACAGAAGGCCUUUGUC [SS1 - 50]
MS2 coat protein [1]
  apparent KD of MS2 coat protein: 20.4 nM
MS2 coat protein [2]
  apparent KD of MS2 coat protein: 20.4 nM

## AAAAGACAUGAGGAUCACCCAUGUCAAAACGUAGGAGGAUAUGUCUUGAAAAAAGACUUGACAGAAGGCCUGUGUC [SS1 - 54]
MS2 coat protein [1]
  apparent KD of MS2 coat protein: 17 nM
MS2 coat protein [2]
  apparent KD of MS2 coat protein: 15.1 nM

## AAAAGACAUGAGGAUCACCCAUGUCUUCGGACAUGAGGAUAUGUACAGACUUCGGUCUGUACAGAAGGCAUAAAAA [SS1 - 1062]
MS2 coat protein [1]
  apparent KD of MS2 coat protein: 82.2 nM
MS2 coat protein [2]
  apparent KD of MS2 coat protein: 21.1 nM

## AAAAGACAUGAGGAUCACCCAUGUGAAAACGUACAAGGAUAUGUGUGGAAACCGUACUAUACAGAAGGUGUCUGUC [SS1 - 87]
MS2 coat protein [1]
  apparent KD of MS2 coat protein: 30.2 nM
MS2 coat protein [2]
  apparent KD of MS2 coat protein: 63 nM

## AAAAGACAUGAGGAUCACCCAUGUGAAAACGUGCGAGGAUAUGUGUGGAAACCGUACUAUACAGAAGGCGCGUGUC [SS1 - 84]
MS2 coat protein [1]
  apparent KD of MS2 coat protein: 33.9 nM
MS2 coat protein [2]
  apparent KD of MS2 coat protein: 22.2 nM

## AAAGAAUGAAGGCAGGAUAUGUGAAAAAAAACAUGAGGAUCACCCAUGUAAUAAAUGGGUACAAAACAGAAGGGCCAAGAAAUAA [SS 2 Tesla 2]
MS2 coat protein [1]
  apparent KD of MS2 coat protein: 398 nM
MS2 coat protein [2]
  apparent KD of MS2 coat protein: 170 nM

## AAAGAAUGAAGGCAGGAUAUGUGAAAAAAAACAUGAGGAUCACCCAUGUAAUAGAUGGUGAAAAGGCAGAAGGGCCAAGAAACAA [SS 2 Tesla 6]
MS2 coat protein [1]
  apparent KD of MS2 coat protein: 199 nM
MS2 coat protein [2]
  apparent KD of MS2 coat protein: 12.4 nM

## AAAGACAUGGUGUAGGAUAUAUUAAUAGUCACAUGAGGAUCACCCAUGUUCAUAUAUAUGAACGAGUAGAAGGACGAUGAAAAAA [SameState2 Malc#3]
MS2 coat protein [1]
  apparent KD of MS2 coat protein: 205 nM
MS2 coat protein [2]
  apparent KD of MS2 coat protein: 497 nM

## AAAUAAAGGACUGAGGAUAUACCACAUGAAACAUGAGGAUCACCCAUGUAGAAAUACAAGCGGUGGUAGAAGGCAGUCCACAAAC [Same State 2.5i ( so lets mod hyphema)]
MS2 coat protein [1]
  apparent KD of MS2 coat protein: 20.4 nM
MS2 coat protein [2]
  apparent KD of MS2 coat protein: 21.2 nM

## AAAUAAAUGACUAAGGAUAUAUCAGAAAAAACAUGAGGAUCACCCAUGUAAUAAUAAAAAGGGUGAUAGAAGGUAGUCAACAAAC [74%, More Paria 4]
MS2 coat protein [1]
  apparent KD of MS2 coat protein: 118 nM
MS2 coat protein [2]
  apparent KD of MS2 coat protein: 25.6 nM

## AAAUAACAUGAGGAUCACCCAUGUUGCAACGGUAGAGGAUAUGUGGGUGAAAAUAGCAUGGCAGAAGGCUAGUGUA [SameState1 Malc#28]
MS2 coat protein [1]
  apparent KD of MS2 coat protein: 110 nM
MS2 coat protein [2]
  apparent KD of MS2 coat protein: 172 nM

## AAAUUACAUGAGGAUCACCCAUGUAACGACGUUACAGGAUAUGUGGGUGAAAAUAGCAUGACAGAAGGGUACCGUA [SameState1 Malc#38]
MS2 coat protein [1]
  apparent KD of MS2 coat protein: 28.4 nM
MS2 coat protein [2]
  apparent KD of MS2 coat protein: 78.8 nM

## AACAAUCUAUCUGAGGAUAUGUGUCGAAAGACAUGAGGAUCACCCAUGUAAAAACAUGAAAAGAUACAGAAGGCAGAUAGAUUGA [SS2: 1156]
MS2 coat protein [1]
  apparent KD of MS2 coat protein: 29.3 nM
MS2 coat protein [2]
  apparent KD of MS2 coat protein: 18.1 nM

## AACAAUCUAUCUGAGGAUAUGUGUCGAAAGACAUGAGGAUCACCCAUGUGAAAACAUGGAAAAACACAGAAGGCAGAUAGAUUGA [SS2: 1150]
MS2 coat protein [1]
  apparent KD of MS2 coat protein: 202 nM
MS2 coat protein [2]
  apparent KD of MS2 coat protein: 147 nM

## AACGAACAUGAGGAUCACCCAUGUUCCAACAGUUGAGGAUAUGUGGGUGAAAAUAGCACGGCAGAAGGCGAGUGUA [SameState1 Malc#21]
MS2 coat protein [1]
  apparent KD of MS2 coat protein: 49.8 nM
MS2 coat protein [2]
  apparent KD of MS2 coat protein: 70.2 nM

## AACGAACAUGAGGAUCACCCAUGUUCCAGCAGUUGAGGAUAUGUGGGUGAAAAUAGCACGGCAGAAGGCGAGUGUA [SameState1 Malc#22]
MS2 coat protein [1]
  apparent KD of MS2 coat protein: 82.1 nM
MS2 coat protein [2]
  apparent KD of MS2 coat protein: 79.8 nM

## AACUAACAUGAGGAUCACCCAUGUUACAGCAGUUGAGGAUAUGUGGGUGAAAAUAGCACGGCAGAAGGCGAGUGUA [SameState1 Malc#23]
MS2 coat protein [1]
  apparent KD of MS2 coat protein: 150 nM
MS2 coat protein [2]
  apparent KD of MS2 coat protein: 237 nM

## AAGAAACAUGAGGAUCACCCAUGUAAGAUAAACACAGGAUAUGCAAAAGAAAGAAAGAAAGCAGAAGGGUGAAGAA [Mat - Same State 1 - Tesla mod - 50]
MS2 coat protein [1]
  apparent KD of MS2 coat protein: 42.3 nM
MS2 coat protein [2]
  apparent KD of MS2 coat protein: 15.7 nM

## AAGAAACAUGAGGAUCACCCAUGUAAGAUAAACACAGGAUAUGCGAAAAUAAACAAAUAAGCAGAAGGGUGAAGAA [Mat - Same State 1 - Tesla mod - 65]
MS2 coat protein [1]
  apparent KD of MS2 coat protein: 28.1 nM
MS2 coat protein [2]
  apparent KD of MS2 coat protein: 19.5 nM

## AAGAAACAUGAGGAUCACCCAUGUAAGAUAAACACAGGAUAUGCGAAAGAAACAAAAGAAGCAGAAGGGUGAAGAA [Mat - Same State 1 - Tesla mod - D146]
MS2 coat protein [1]
  apparent KD of MS2 coat protein: 29.4 nM
MS2 coat protein [2]
  apparent KD of MS2 coat protein: 17.1 nM

## AAGAAACAUGAGGAUCACCCAUGUACCCAAAAGGGAGGAUAUGCGAAAGAAAGAAAGAAAGCAGAAGGCCCAUGAA [Artaxerxes I Longhand]
MS2 coat protein [1]
  apparent KD of MS2 coat protein: 25.3 nM
MS2 coat protein [2]
  apparent KD of MS2 coat protein: 13.9 nM

## AAGAAACAUGAGGAUCACCCAUGUAGAAAUAUGGGAGGAUAUACAAGGACGGAAGUCAAGGUAGAAGGCCUAAGAA [Mat - Same State 1 - Meechl mod - D133]
MS2 coat protein [1]
  apparent KD of MS2 coat protein: 112 nM
MS2 coat protein [2]
  apparent KD of MS2 coat protein: 26.7 nM

## AAGAAACAUGAGGAUCACCCAUGUAGAAAUAUGGGAGGAUAUACGAAGACGAAAGUCAAAGUAGAAGGCCUAAAGA [Mat - Same State 1 - Eli mod - D106]
MS2 coat protein [1]
  apparent KD of MS2 coat protein: 61.5 nM
MS2 coat protein [2]
  apparent KD of MS2 coat protein: 20.3 nM

## AAGAAAGAAACAUAGGAUAUCAAGGAUAUAACAUGAGGAUCACCCAUGUAAAUACGAAAGUAUAAUGAGAAGGAUGGAUGAUCUAC [Meechl MS2 SS2 3]
MS2 coat protein [1]
  apparent KD of MS2 coat protein: 79.5 nM
MS2 coat protein [2]
  apparent KD of MS2 coat protein: 200 nM

## AAUAAAAAUAGUUAGGAUAUGAGAACUAGGACAUGAGGAUCACCCAUGUAACUAGAACAAGUAAAUCAGAAGGGACAGGGUGAAA [JR_SS002_Sub203]
MS2 coat protein [1]
  apparent KD of MS2 coat protein: 19 nM
MS2 coat protein [2]
  apparent KD of MS2 coat protein: 41.9 nM

## AAUAAGACUAGCAAGGAUAUCGAAAACGAGACAUGAGGAUCACCCAUGUAACAAGUAAAAGUAAACGAGAAGGUGCAGGGUGAAA [JR_SS002_Sub301]
MS2 coat protein [1]
  apparent KD of MS2 coat protein: 80 nM
MS2 coat protein [2]
  apparent KD of MS2 coat protein: 56.9 nM

## AAUAAUUAUAGCAAGGAUAUCGGUAUAAAGACAUGAGGAUCACCCAUGUAAUAUGGUUAAAUUUACGAGAAGGUGCAGGGUGAAA [JR_SS002_Sub009]
MS2 coat protein [1]
  apparent KD of MS2 coat protein: 142 nM
MS2 coat protein [2]
  apparent KD of MS2 coat protein: 170 nM

## AAUAUACAUGAGGAUCACCCAUGUUAGGUGGGACUAGGAUAUCAAAAUAAAUAAUGAACAUGAGAAGGAGUAUCAA [JR_SS001_Sub402]
MS2 coat protein [1]
  apparent KD of MS2 coat protein: 190 nM
MS2 coat protein [2]
  apparent KD of MS2 coat protein: 130 nM

## AAUAUACAUGAGGAUCACCCAUGUUAGGUGGGUCAAGGAUAUCAAUAUAAAUAAAAAACUUGAGAAGGUGAAUAAA [JR_SS001_Sub019]
MS2 coat protein [1]
  apparent KD of MS2 coat protein: 155 nM
MS2 coat protein [2]
  apparent KD of MS2 coat protein: 133 nM

## AAUAUACAUGAGGAUCACCCAUGUUUUAAUAACUCAGGAUAUACAGGUGAAAACAGCAUAGUAGAAGGGAGAAAAA [SameState1 Malc#3]
MS2 coat protein [1]
  apparent KD of MS2 coat protein: 23.2 nM
MS2 coat protein [2]
  apparent KD of MS2 coat protein: 18.2 nM

## AAUCCACAUGAGGAUCACCCAUGUCAGGAAAUGACAGGAUAUAGCGAAAAAAAAAAAAAGCUAGAAGGGUCUAAUU [SameState1-cac2]
MS2 coat protein [1]
  apparent KD of MS2 coat protein: 107 nM
MS2 coat protein [2]
  apparent KD of MS2 coat protein: 31.3 nM

## AAUUCCACUAGCAAGGAUAUCUAAAACGAAACAUGAGGAUCACCCAUGUGACGACCACACGUAUCAGAGAAGGUGCAGGGUGAAU [JR_SS002_Sub307]
MS2 coat protein [1]
  apparent KD of MS2 coat protein: 31.9 nM
MS2 coat protein [2]
  apparent KD of MS2 coat protein: 20.5 nM

## AGAAAACAUGAGGAUCACCCAUGUAGAAAUAUGGGAGGAUAUACAAAGACGAAAGUCAAAGUAGAAGGCCUGAAGA [Mat - Same State 1 - JL mod - D92]
MS2 coat protein [1]
  apparent KD of MS2 coat protein: 75 nM
MS2 coat protein [2]
  apparent KD of MS2 coat protein: 20.4 nM

## AGAAAACAUGAGGAUCACCCAUGUAGGAAUAUGGGAGGAUAUACAAAGACGAAAGUCAGAGUAGAAGGCCUAAAAA [salish99-SS1-086]
MS2 coat protein [1]
  apparent KD of MS2 coat protein: 92.3 nM
MS2 coat protein [2]
  apparent KD of MS2 coat protein: 17.5 nM
